{"source": "patent US20080009458", "system": "p53", "data": [{"substance": "GST-COP1", "values": [{"measurement": "in vitro ubiquitination of p53 (immunoblot of ubiquitinated species of p53)", "value": "Only with all of the reaction components and p53 present was COP1 able to directly ubiquitinate p53"}]}]}
